This passage reports EC50 (read off the curve) and Half-life results from US20220144916A1.

The target of experiment [1] is KJ1-26 clonotypic antibody.
Experiment [2] addresses OVA/I-Ad on murine A20 antigen presenting cells pulsed with OVA323-339 peptide (hen; mouse) (UniProt P01012).

A word on the EC50 (read off the curve): it is the midpoint of the concentration-response curve. High values mean weaker potency, low ones greater potency. In turn, “DO11.10 scTCR-Fc fusion protein (Vβ-linker-Vα format)” registered an EC50 (read off the curve) in experiment [1] of 0.03 nM. This substance also had a Half-life in experiment [2] of 5.5 min.
